Consider 35 molecules from US20260295010 (published 2026).

Residue numbers refer to the chain shown, from its start. Numbers in names are those of the source.

T1: IL-12RB2-hFc (human, UniProt Q99665)
T1 chain: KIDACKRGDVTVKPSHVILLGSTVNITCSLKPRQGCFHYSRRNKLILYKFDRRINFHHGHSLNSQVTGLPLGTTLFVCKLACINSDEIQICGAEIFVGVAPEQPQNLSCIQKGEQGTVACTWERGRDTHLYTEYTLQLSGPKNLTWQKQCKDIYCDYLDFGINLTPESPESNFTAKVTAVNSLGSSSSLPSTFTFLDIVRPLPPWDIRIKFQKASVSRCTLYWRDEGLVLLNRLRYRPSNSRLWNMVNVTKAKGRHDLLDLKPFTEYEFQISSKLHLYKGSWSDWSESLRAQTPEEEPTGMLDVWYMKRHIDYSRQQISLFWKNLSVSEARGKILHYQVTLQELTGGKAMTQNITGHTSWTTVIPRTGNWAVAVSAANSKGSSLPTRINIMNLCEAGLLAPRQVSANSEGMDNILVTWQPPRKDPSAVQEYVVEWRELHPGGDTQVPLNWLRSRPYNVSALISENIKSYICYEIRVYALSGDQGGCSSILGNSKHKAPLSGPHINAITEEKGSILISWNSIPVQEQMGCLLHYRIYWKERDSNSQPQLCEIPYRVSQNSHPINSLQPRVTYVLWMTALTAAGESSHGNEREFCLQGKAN

B1: IL-12p70 W16A D94K K196E K259Y (protein)
chain 1: MIWELKKDVYVVELDAYPDAPGEMVVLTCDTPEEDGITWTLDQSSEVLGSGKTLTIQVKEFGDAGQYTCHKGGEVLSHSLLLLHKKEDGIWSTKILKDQKEPKNKTFLRCEAKNYSGRFTCWWLTTISTDLTFSVKSSRGSSDPQGVTCGAATLSAERVRGDNKEYEYSVECQEDSACPAAEESLPIEVMVDAVHELKYENYTSSFFIRDIIKPDPPKNLQLKPLKNSRQVEVSWEYPDTWSTPHSYFSLTFSVQVQGYSKREKKDRVFTDKTSATVICRKNASISVRAQDRYYSSSWSEWASVPCSGGGSHHHHHH
chain 2: MRNLPVATPDPGMFPSLHHSQNLLRAVSNMLQKARQTLEFYPCTSEEIDHEDITKDKTSTVEACLPLELTKNESCLNSRETSFITNGSSLASRKTSFMMALCLSSIYEDLKMYQVEFKTMNAKLLMDPKRQIFLDQNMLAVIDELMQALNFNSETVPQKSSLEEPDFYKTKIKLCILLHAFRIRAVTIDRVMSYLNAS
B2: IL-12p70 W16A D94K (protein)
chain 1: B1 chain 1 with E196K, Y259K
chain 2: B1 chain 2
B3: IL-12p70 W16A D94K K196E L197A (protein)
chain 1: B1 chain 1 with L197A, Y259K
chain 2: B1 chain 2
B4: IL-12p70 D94K K196E (protein)
chain 1: B1 chain 1 with A16W, Y259K
chain 2: B1 chain 2
B5: IL-12p70 I90A (protein)
chain 1: B1 chain 1 with A16W, I90A, K94D, E196K, Y259K
chain 2: B1 chain 2
B6: IL-12p70 K103A (protein)
chain 1: B1 chain 1 with A16W, K94D, K103A, E196K, Y259K
chain 2: B1 chain 2
B7: IL-12p70 H195A (protein)
chain 1: B1 chain 1 with A16W, K94D, H195A, E196K, Y259K
chain 2: B1 chain 2
B8: IL-12p70 K59E (protein)
chain 1: B1 chain 1 with A16W, K59E, K94D, E196K, Y259K
chain 2: B1 chain 2
B9: IL-12p70 E87K,K196E (protein)
chain 1: B1 chain 1 with A16W, E87K, K94D, Y259K
chain 2: B1 chain 2
B10: IL-12p70 E46K (protein)
chain 1: B1 chain 1 with A16W, E46K, K94D, E196K, Y259K
chain 2: B1 chain 2
B11: IL-12p70 K59A (protein)
chain 1: B1 chain 1 with A16W, K59A, K94D, E196K, Y259K
chain 2: B1 chain 2
B12: IL-12p70 D94A (protein)
chain 1: B1 chain 1 with A16W, K94A, E196K, Y259K
chain 2: B1 chain 2
B13: IL-12p70 K105A (protein)
chain 1: B1 chain 1 with A16W, K94D, K105A, E196K, Y259K
chain 2: B1 chain 2
B14: IL-12p70 D42K (protein)
chain 1: B1 chain 1 with A16W, D42K, K94D, E196K, Y259K
chain 2: B1 chain 2
B15: IL-12p70 K196A (protein)
chain 1: B1 chain 1 with A16W, K94D, E196A, Y259K
chain 2: B1 chain 2
B16: IL-12p70 N104A (protein)
chain 1: B1 chain 1 with A16W, K94D, N104A, E196K, Y259K
chain 2: B1 chain 2
B17: IL-12p70 N201A (protein)
chain 1: B1 chain 1 with A16W, K94D, E196K, N201A, Y259K
chain 2: B1 chain 2
B18: IL-12p70 W91A (protein)
chain 1: B1 chain 1 with A16W, W91A, K94D, E196K, Y259K
chain 2: B1 chain 2
B19: IL-12p70 D88K (protein)
chain 1: B1 chain 1 with A16W, D88K, K94D, E196K, Y259K
chain 2: B1 chain 2
B20: IL-12p70 T203A (protein)
chain 1: B1 chain 1 with A16W, K94D, E196K, T203A, Y259K
chain 2: B1 chain 2
B21: IL-12p70 K103E (protein)
chain 1: B1 chain 1 with A16W, K94D, K103E, E196K, Y259K
chain 2: B1 chain 2
B22: IL-12p70 D88A (protein)
chain 1: B1 chain 1 with A16W, D88A, K94D, E196K, Y259K
chain 2: B1 chain 2
B23: IL-12p70 S44A (protein)
chain 1: B1 chain 1 with A16W, S44A, K94D, E196K, Y259K
chain 2: B1 chain 2
B24: IL-12p70 Q43A (protein)
chain 1: B1 chain 1 with A16W, Q43A, K94D, E196K, Y259K
chain 2: B1 chain 2
B25: IL-12p70 D162K (protein)
chain 1: B1 chain 1 with A16W, K94D, D162K, E196K, Y259K
chain 2: B1 chain 2
B26: IL-12p70 H195E (protein)
chain 1: B1 chain 1 with A16W, K94D, H195E, E196K, Y259K
chain 2: B1 chain 2
B27: IL-12p70 P21A (protein)
chain 1: B1 chain 1 with A16W, P21A, K94D, E196K, Y259K
chain 2: B1 chain 2
B28: IL-12p70 D162A (protein)
chain 1: B1 chain 1 with A16W, K94D, D162A, E196K, Y259K
chain 2: B1 chain 2
B29: IL-12p70 S45A (protein)
chain 1: B1 chain 1 with A16W, S45A, K94D, E196K, Y259K
chain 2: B1 chain 2
B30: IL-12p70 Y17A (protein)
chain 1: B1 chain 1 with A16W, Y17A, K94D, E196K, Y259K
chain 2: B1 chain 2
B31: IL-12p70 I278Y (protein)
chain 1: B1 chain 1 with A16W, K94D, E196K, Y259K, I278Y
chain 2: B1 chain 2
B32: IL-12p70 E87K (protein)
chain 1: B1 chain 1 with A16W, E87K, K94D, E196K, Y259K
chain 2: B1 chain 2
B33: IL-12p70 E46A (protein)
chain 1: B1 chain 1 with A16W, E46A, K94D, E196K, Y259K
chain 2: B1 chain 2
B34: IL-12p70 D42A (protein)
chain 1: B1 chain 1 with A16W, D42A, K94D, E196K, Y259K
chain 2: B1 chain 2
B35: IL-12p70 E87A (protein)
chain 1: B1 chain 1 with A16W, E87A, K94D, E196K, Y259K
chain 2: B1 chain 2

The first test concerns the target T1, IL-12RB2-hFc. Put plainly: SPR, 25C. (SPR reads the build-up and loss of mass on a sensor chip optically.)
Take B1: the affinity, expressed as Kd, was 1900 pM.

As to B2, binding was characterised by a dissociation constant (Kd) of 2400 pM. This Kd and that of the molecule before are within 1.5-fold of each other.

Turning to B3, the dissociation constant (Kd) came to 3000 pM.

Molecule B4 showed a dissociation constant (Kd) of 2300 pM.

The next test concerns the target T1, IL-12RB2-hFc. Put plainly: SPR, 25C. This is another data set of the same source.
As for B5, the Kd came to 350 pM.

For the molecule B6, the affinity, expressed as Kd, was 330 pM.

B7: binding was characterised by a dissociation constant (Kd) of 540 pM.

B8 came in with a Kd of 490 pM.

The molecule B9 gave a Kd of 490 pM.

Molecule B10 displayed a dissociation constant (Kd) of 520 pM.

In turn, B11 had a Kd of 2100 pM.

In turn, B12 displayed a Kd of 430 pM.

Molecule B13 gave a Kd of 340 pM.

As for B14, the Kd worked out at 450 pM.

B15 showed a Kd of 580 pM.

With B16, binding was put at a Kd of 390 pM.

The molecule B17 came in with a Kd of 500 pM.

In turn, B18 gave a Kd of 530 pM.

Regarding B19, the affinity, expressed as Kd, was 310 pM.

B20 returned a Kd of 500 pM.

The molecule B21 showed a Kd of 340 pM.

Take B22: the Kd worked out at 380 pM. The Kd values of the last two molecules are within 1.5-fold of each other.

A further test has as its target IL-12RB1-hFc (human, UniProt P42701). Nature of the test: SPR, 25C.
Consider B5, for which the affinity, expressed as Kd, was 60 pM.

In the case of B23, the equilibrium dissociation constant (Kd) was found to be 50 pM.

For the molecule B6, the Kd was determined as 40 pM.

B7 returned an equilibrium dissociation constant (Kd) of 130 pM.

As to B8, the Kd came out at 70 pM.

B24 returned a dissociation constant (Kd) of 30 pM.

As for B25, the affinity, expressed as Kd, was 70 pM. Against the preceding molecule, the Kd is about 2.3-fold higher.

B9 showed an equilibrium dissociation constant (Kd) of 240 pM.

Molecule B26 came in with a Kd of 60 pM.

B10 gave a Kd of 40 pM.

The molecule B11 yielded a Kd of 70 pM.

B12 yielded an equilibrium dissociation constant (Kd) of 690 pM. This Kd is about 9.9-fold higher than that of the molecule before.

B13: the dissociation constant Kd turned out to be 60 pM.

For the molecule B27, binding was characterised by a dissociation constant (Kd) of 60 pM.

Molecule B14 returned a dissociation constant (Kd) of 30 pM. This Kd is about 2-fold lower than that of the molecule before.

Molecule B15 registered a Kd of 40 pM.

Consider B28, for which the dissociation constant Kd came out at 50 pM. This Kd and that of the molecule before are within 1.5-fold of each other.

B29: binding was characterised by a dissociation constant (Kd) of 40 pM.

Turning to B30, the equilibrium dissociation constant (Kd) was 70 pM.

B16 returned a dissociation constant (Kd) of 50 pM.

Turning to B17, the affinity, expressed as Kd, was 40 pM.

Molecule B18 had a dissociation constant Kd of 70 pM.

B19 came in with a dissociation constant (Kd) of 20 pM.

With B20, the equilibrium dissociation constant (Kd) came to 40 pM. This Kd lies about 2-fold higher than the previous one.

As for B31, binding was put at a Kd of 40 pM.

In turn, B32 yielded an equilibrium dissociation constant (Kd) of 110 pM.

In the case of B33, the Kd was 60 pM.

With B34, the dissociation constant (Kd) was 70 pM. This Kd and that of the molecule before are within 1.5-fold of each other.

Molecule B21 gave a Kd of 110 pM.

B22 came in with a dissociation constant (Kd) of 30 pM.

B35 came in with an equilibrium dissociation constant (Kd) of 40 pM. This Kd and that of the molecule before are within 1.5-fold of each other.

The Kd is the concentration at which binding is half-saturated. Read a high Kd as weaker binding.
